One molecule from patent US20230151437A1, “USE OF PROTEIN ASSEMBLIES TO RECORD CELLULAR EVENTS” (President and Fellows of Harvard College, priority 2021, published 2023) can be followed below.

The test system of data set [1] is HEK cells. Kind of data set: HT dye switch fluorescence profiles of HT-iPAK4 assemblies in HEK cells. The conditions noted are these: dishes fixed at 8 h vs 30 h (22 h, one day). In kind it is cell-based. As for the experimental part: To test whether assemblies could encode HT dye timestamps, HEK cells growing HT-iPAK4 assemblies were successively washed with different colors of HT-ligand dyes at Δt=2 h intervals in the sequence JF503, JF669, JFX608, JF503, JF669 (FIG. 2A; see FIGS. 11A-11B for dye structures, photophysical properties, and synthesis of JFX608). The cells were then fixed and imaged with spectrally resolved confocal microscopy. Clear progression of colored bands matching the sequence of dye additions was observed.
To test the limits of how fast dye transitions could be encoded, assemblies were made with seven dye switches at Δt=1 h. At this short interval, peaks were still visible, but their amplitude was suppressed relative to the parts of the assembly with no dye switches, indicating incomplete transitions in dye labeling (FIG. 12E).
A protein ticker tape may stably store its information for extended times. […] The fluorescence profiles for the section of the assemblies that grew concurrently (from t=0 to 8 h) were then compared. […]
Image processing and data analysis: Images of individual assemblies were rotated to align the long axis to the x-axis. Fluorescence profiles were then calculated as the median fluorescence in each spectral channel across the width of the assembly. […] Dye transitions were identified as local maxima in the second derivative of the dye fluorescence as a function of position. […]

Data set [2] concerns cultured neurons. Kind of data set: Patch clamp electrophysiology of neurons with iPAK4 assemblies. In kind it is cell-based, rat. The conditions noted are these: N=11, mean±s.e.m. The method, then: FIGS. 5A-5H show protein ticker tape recordings of cFos activation in neurons. FIG. 5A provides an image of a cultured neuron expressing lentiviral CMV::iPAK4 (90%) and CMV::eGFP-iPAK4 (10%). Scale bar 50 μm. […] Spikes were evoked by a current injection of 100 pA. […] Error bars show mean±s.e.m. Two-sided Student's t-test was employed for data comparison. […] Scale bar 5 μm.
Whether iPAK4 assemblies affected neuronal electrophysiology was then tested. Neurons infected with lentivirus encoding CMV::iPAK4 (90%) and CMV::eGFP-iPAK4 (10%) grew single straight assemblies (FIG. 5A). Patch clamp recordings were used to compare the electrophysiology of neurons with and without assemblies. Although in many cases the assembly length was several times longer than the soma diameter, neurons with assemblies spiked normally (FIG. 5B), and had membrane resistance, membrane capacitance, resting potential, and rheobase that were statistically indistinguishable from neurons without assemblies (N=11 neurons with assemblies, N=12 without, two-sided Student's t-test, FIG. 5C).
Patch clamp electrophysiology: Whole-cell recordings were performed in extracellular buffer containing (in mM): 125 NaCl, 2.5 KCl, 15 HEPES, 25 D-glucose, 1 MgCl2, and 2 CaCl2 (pH=7.2-7.3 with NaOH). Assembly-forming and non-forming (control) neurons were visualized with a home-built inverted epifluorescence microscope. Experiments were made at 23° C. under ambient atmosphere. The whole-cell internal solution comprised (in mM): 8 NaCl, 130 KMeSO3, 10 HEPES, 5 KCl, 0.5 EGTA, 4 Mg-ATP, and 0.3 Na3-GTP. The pH was adjusted to 7.2-7.3 with KOH and osmolarity was set to 290-295 mOsm/L. Borosilicate glass pipettes were used with a resistance of 3-5 MΩ (1.5 mm OD). Signals were acquired and filtered at 4 kHz with the internal Bessel filter using a Multiclamp 700B (Molecular Devices) and digitized with PCIe-6323 (National Instruments) at 10 kHz. Following the whole-cell configuration, membrane capacitance (Cm), and membrane resistance (Rm) were estimated under voltage-clamp mode. Measurements of resting membrane potential (Vrest), rheobase, and spike rates were made under current-clamp mode. Rheobase was defined as the minimum current step (in 500 ms duration) required for any spike onset. Whole-cell recordings were monitored and analyzed using a custom code written in LabView and Matlab.
For orientation: In patch-clamp work, channel activity is measured electrically.

Data set [3] relates to HEK cells. Kind of data set: Live-dead assay in HEK cells expressing iPAK4 assemblies. In kind it is cell-based. To be noted: n=24 fields of view. The text has this:
FIGS. 9A-9C show a live-dead assay to assess the effect of iPAK4 assemblies on cell health. Related to FIG. 1A, FIG. 9A provides images of HEK293T cells expressing CMV::iPAK4 (95%) and CMV::HT-iPAK4 (5%). Many iPAK4 assemblies can be identified in a magnified view. […] Live cells (calcein-AM), dead cells (EthD-1), and HaloTag-iPAK4 stained with JFX608 are shown. FIG. 9C provides a statistical comparison of the dead cell population in iPAK4+ and iPAK4− groups. Each point represents one field of view. Two dishes per condition were investigated. […] The statistical comparison was performed by student's t-test. Lower and upper bounds of the box plot: 25th and 75th percentile; lower and upper whiskers: minimum and maximum; squares: mean; center lines: median.
It was then determined whether the iPAK4 assemblies affect cell survival, as the assemblies often grew longer than the cell diameters (FIG. 6A).

For data set [4], the system named is cultured neurons. As to the kind of experiment: Live-dead assay in cultured neurons expressing iPAK4 assemblies. Type of data set: cell-based, rat. The conditions noted are these: assemblies grown for 6 days. As for the experimental part: Related to FIG. 5. […] Staining of live cells (calcein-AM) and dead cells (EthD-1) is shown. The assay was performed at day 6 after lentiviral infection. Many iPAK4 assemblies are present in FIG. 22A (assemblies share the channel with calcein-AM). Scale bars: 200 μm. FIG. 22C provides a statistical comparison of the live-cell and dead-cell populations, and the dead/live cell ratio in iPAK4+ and iPAK4− groups (N=5 fields of view per group).
To test for effects of iPAK4 assemblies on neuronal survival, iPAK4 (95%) and HT-iPAK4 (5%) were lentivirally expressed in cultured neurons, the assemblies were allowed to grow for 6 days, and then a live-dead assay was performed (FIGS. 22A-22C). […] The iPAK4-expressing neurons had typical soma and neurite structures, similar to those observed in healthy neurons.
Primary neuron culture: Before the plating of primary hippocampal neurons, 14 mm glass-bottom dishes were first incubated with 40 μg/ml poly-D-lysine (PDL) in PBS at room temperature for 1 h and subsequentially with 20 μg/ml laminin (Fisher Scientific; 23-017-015) at 4° C. overnight, followed by thorough wash with PBS. […] Neuronal health was monitored daily from DIV1 to DIV7. […]

B1: iPAK4: fusion of the catalytic domain of the Pak4 kinase and the 38 amino acid iBox domain of its inhibitor Inka1 (SEQ ID NO: 1) (protein)
chain: MDYKDDDDKSGSEAEDWTAALLNRGRSRQPLVLGDNCFADLVHNWMELPEEFPAAPAVPGPPGPRSPQREPQRVSHEQFRAALQLVVDPGDPRSYLDNFIKIGEGSTGIVCIATVRSSGKLVAVKKMDLRKQQRRELLFNEVVIMRDYQHENVVEMYNSYLVGDELWVVMEFLEGGALTDIVTHTRMNEEQIAAVCLAVLQALSVLHAQGVIHRDIKSDSILLTHDGRVKLSDFGFCAQVSKEVPRRKSLVGTPYWMAPELISRLPYGPEVDIWSLGIMVIEMVDGEPPYFNEPPLKAMKMIRDNLPPRLKNLHKVSPSLKGFLDRLLVRDPAQRATAAELLKHPFLAKAGPPASIVPLMRQNRTR
In the case of B1, the “monomer exchange in the assembly” value in the data set with HEK cells [1] is “negligible”. In the data set with cultured neurons [2], this molecule returned a membrane capacitance of 63±6 pF, a membrane resistance of 404±73 MΩ, a resting potential of −61.2±1.2 mV and a rheobase of 89±12 pA. Besides, in the data set on HEK cells [3], the dead cells was determined as 0.267±0.139%. In the data set on cultured neurons [4], the “fraction of dead cells vs dishes not infected with any lentivirus” value is listed as “no significant difference”.
